Results as given in PMC3484126.
Like-named read-outs stand apart in the source and are kept apart here.

What was measured:
[1] = molecular target: T1, KLF4 full-length (UniProt O43474-1 1-479); settings: protein: recombinant; tags: N-terminal 6xHis-lipoyl-TEV tag, cleaved; label: 5' fluorescein
[2] = molecular target: T1, KLF4 full-length; settings: protein: recombinant; tags: N-terminal 6xHis-lipoyl-TEV tag, cleaved; label: 5' fluorescein; remark: listed apart in the source
[3] = molecular target: T1, KLF4 full-length; settings: protein: recombinant; tags: N-terminal 6xHis-lipoyl-TEV tag, cleaved; label: 5' Alexa488

T1 sequence (O43474 other isoform, or with tags, fused parts or gaps): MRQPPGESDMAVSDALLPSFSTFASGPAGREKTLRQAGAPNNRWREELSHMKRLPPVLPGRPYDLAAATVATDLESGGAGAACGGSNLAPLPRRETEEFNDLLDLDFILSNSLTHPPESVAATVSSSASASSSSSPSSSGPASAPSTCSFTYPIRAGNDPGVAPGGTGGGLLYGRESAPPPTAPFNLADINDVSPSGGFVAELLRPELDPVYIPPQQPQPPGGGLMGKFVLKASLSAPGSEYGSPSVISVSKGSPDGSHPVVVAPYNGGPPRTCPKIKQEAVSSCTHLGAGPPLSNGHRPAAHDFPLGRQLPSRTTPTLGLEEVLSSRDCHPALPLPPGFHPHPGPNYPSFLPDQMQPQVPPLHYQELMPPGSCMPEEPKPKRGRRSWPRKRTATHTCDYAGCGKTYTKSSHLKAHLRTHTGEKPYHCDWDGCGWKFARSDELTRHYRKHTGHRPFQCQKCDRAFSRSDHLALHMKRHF

B1: *K-2 (dsDNA)
DNA 1: GGGCCACCCCGCC
DNA 2: GGCGGGGTGGCCC
B1 showed a binding signal [1] of 100 fold weaker than *K-1.

B2: *K-1 (dsDNA)
DNA 1: AGGGTGTGGCCCGC
DNA 2: GCGGGCCACACCCT
B2: binds [2].

B3: *P (dsDNA)
DNA 1: GGACATGTCCGGACATGTCC
DNA 2: GGACATGTCCGGACATGTCC
B3: no binding [3].
